Assay [1] has as its target HLA-B*57:01. Kind of assay: IEDB peptide-MHC binding, purified MHC/direct/fluorescence; filed as Kd, often an IC50 or EC50 that approximates it; ≥ and ≤ were set here for values at or beyond the usual limits of such assays.
The target in a further assay is HLA-B*15:01. The assay is described as above.
Another assay concerns the target HLA-A*01:01. The assay is described as above.
The target in assay [2] is HLA-B*58:01. The assay is described as above.
The target in the next assay is HLA-B*15:17. Described as above.
The target of a further assay is HLA-B*08:02. The description is as above. As to conditions: source organism: Orthomarburgvirus marburgense.
The target of another assay is HLA-B*48:01. Described as above.
The target in a further assay is HLA-A*31:01. The assay is described as above.
In a further assay the target is HLA-A*69:01. Described as above.
A further assay concerns the target HLA-B*46:01. The description is as above.
The target of the next assay is HLA-A*68:02. The description is as above.
A further assay has as its target HLA-B*07:02. The description is as above.
For a further assay, the target named is HLA-A*26:03. Described as above.
The target in another assay is HLA-B*08:03. The assay is described as above.
The target in the next assay is HLA-B*39:01. Described as above. As to conditions: source organism: Orthomarburgvirus marburgense.
Another assay deals with HLA-B*15:09. The assay is described as above. As to conditions: source organism: Orthomarburgvirus marburgense.
For a further assay, the target named is HLA-B*27:05. The assay is described as above.
For assay [3], the target named is HLA-A*26:01. Kind of assay: IEDB peptide-MHC binding, purified MHC/competitive/fluorescence; filed as Kd, often an IC50 or EC50 that approximates it; ≥ and ≤ were set here for values at or beyond the usual limits of such assays. To be noted: source organism: Orthomarburgvirus marburgense.
Assay [4] addresses HLA-A*11:01. The assay is described as above. As to conditions: source organism: Orthomarburgvirus marburgense.
The target in assay [5] is HLA-A*26:02. Described as above. As to conditions: source organism: Orthomarburgvirus marburgense.
The target of assay [6] is HLA-A*02:01. The description is as above. As to conditions: source organism: Orthomarburgvirus marburgense.
In another assay the target is HLA-A*02:06. The assay is described as above. As to conditions: source organism: Orthomarburgvirus marburgense.
Another assay concerns the target HLA-A*30:01. The assay is described as above. As to conditions: source organism: Orthomarburgvirus marburgense.
In assay [7] the target is HLA-B*57:01. The experiment in a line: IEDB peptide-MHC binding, purified MHC/competitive/radioactivity; filed as Kd, often an IC50 or EC50 that approximates it; ≥ and ≤ were set here for values at or beyond the usual limits of such assays.
The target in assay [8] is HLA-B*58:01. The description is as above.
A further assay addresses HLA-B*53:01. Described as above. As to conditions: source organism: Dengue virus 4 Philippines/H241/1956.
The target of the next assay is HLA-B*35:01. Described as above. To be noted: source organism: Dengue virus 4 Philippines/H241/1956.
The target of assay [9] is HLA-A*26:01. Kind of assay: IEDB peptide-MHC binding, purified MHC/direct/fluorescence; filed as Kd, often an IC50 or EC50 that approximates it; ≥ and ≤ were set here for values at or beyond the usual limits of such assays. As to conditions: source organism: Ravn virus - Ravn, Kenya, 1987.
A further assay has as its target HLA-B*40:01. The assay is described as above. To be noted: source organism: Marburg virus - Musoke, Kenya, 1980.
Another assay addresses HLA-A*03:01. Described as above. To be noted: source organism: Marburg virus - Musoke, Kenya, 1980.
Assay [10] concerns the target HLA-A*11:01. Described as above. To be noted: source organism: Marburg virus - Musoke, Kenya, 1980.
Assay [11] concerns the target HLA-A*26:02. The assay is described as above. To be noted: source organism: Ravn virus - Ravn, Kenya, 1987.
In the next assay the target is HLA-B*08:01. The description is as above. As to conditions: source organism: Ravn virus - Ravn, Kenya, 1987.
The target in assay [12] is HLA-A*02:01. Described as above. To be noted: source organism: Marburg virus - Musoke, Kenya, 1980.
The target in another assay is HLA-B*18:01. Described as above. To be noted: source organism: Marburg virus - Musoke, Kenya, 1980.
Another assay deals with HLA-C*05:01. The description is as above. To be noted: source organism: Mycobacterium tuberculosis C.
The next assay addresses HLA-A*24:03. The assay is described as above. To be noted: source organism: Mycobacterium tuberculosis.
[13] abbreviates: source organism: Lake Victoria marburgvirus - Popp.
Where [14] appears, read: source organism: Orthomarburgvirus marburgense.
The mark [15] stands for this setting: source organism: Dengue virus 4 Philippines/H241/1956.
Setting [16] is: source organism: Dengue virus 1 Brazil/97-11/1997.
[17] abbreviates: source organism: Dengue virus 3 Martinique/1243/1999.
Setting [18] is: source organism: Marburg virus - Musoke, Kenya, 1980.
Setting [19] is: source organism: Ravn virus - Ravn, Kenya, 1987.

Some results are limits rather than exact numbers.

As for FLMRNAIQY, the Kd in the assay with HLA-B*57:01 [1] (setting [13]) is ≥ 20000 nM; with HLA-B*15:01 (setting [13]), 188 nM; with HLA-A*01:01 (setting [13]), 37.2 nM; with HLA-B*58:01 [2] (setting [13]) it was ≥ 20000 nM; with HLA-B*15:17 (setting [13]), 157 nM; with HLA-B*08:02, ≥ 20000 nM. The dissociation constant (Kd) in the assay with HLA-B*48:01 (setting [13]) was ≥ 20000 nM; with HLA-A*31:01 (setting [13]) it was ≥ 20000 nM; in the assay with HLA-A*69:01 (setting [13]), ≥ 20000 nM; in the assay with HLA-B*46:01 (setting [13]), 4140 nM; with HLA-A*68:02 (setting [13]), ≥ 20000 nM; with HLA-B*07:02 (setting [13]) it was ≥ 20000 nM. The Kd was ≥ 20000 nM with HLA-A*26:03 (setting [14]); ≥ 20000 nM with HLA-B*08:03 (setting [14]); ≥ 20000 nM in the assay with HLA-B*39:01; ≥ 20000 nM with HLA-B*15:09; ≥ 20000 nM with HLA-B*27:05 (setting [13]); 2580 nM in the assay with HLA-A*26:01 [3]. For the same sequence, the dissociation constant (Kd) with HLA-A*11:01 [4] amounted to 3870 nM; in the assay with HLA-A*26:02 [5], 1920 nM; in the assay with HLA-A*02:01 [6] it was 254 nM; in the assay with HLA-A*02:06, 2270 nM; with HLA-A*30:01, 2770 nM.
Regarding RTSCLQKQSH, the Kd with HLA-B*57:01 [7] (setting [15]) is 610 nM.
In the case of AAVLLLVTHY, in the assay with HLA-B*58:01 [8] (source organism: Dengue virus 3 Singapore/8120/1995), the Kd came out at 4140 nM.
In the case of KTSAGVNMCT, the Kd in the assay with HLA-B*57:01 [7] (setting [16]) is 1130 nM; in the assay with HLA-B*58:01 [8] (setting [16]), 4520 nM.
Take MAILGETAW: the Kd with HLA-B*57:01 [7] (setting [15]) came out at 23.5 nM; with HLA-B*53:01 it was 7.05 nM; with HLA-B*58:01 [8] (setting [15]) it was 3.47 nM; with HLA-B*35:01, 102 nM.
On to KAAVEDEDF, for which the Kd in the assay with HLA-B*58:01 [8] (setting [17]) was 76.6 nM.
With CVFKFIVAK, the Kd with HLA-B*57:01 [1] (setting [18]) is ≥ 20000 nM; with HLA-B*15:01 (setting [18]), ≥ 20000 nM; in the assay with HLA-A*26:01 [9] it was ≥ 20000 nM; with HLA-A*01:01 (setting [18]) it was ≥ 20000 nM; in the assay with HLA-B*40:01, ≥ 20000 nM; in the assay with HLA-A*03:01, 391 nM. Also, the Kd with HLA-B*58:01 [2] (setting [18]) was ≥ 20000 nM; with HLA-A*11:01 [10], 31 nM; in the assay with HLA-B*15:17 (setting [18]), ≥ 20000 nM; with HLA-A*26:02 [11], ≥ 20000 nM; with HLA-B*08:01 it was ≥ 20000 nM; with HLA-B*48:01 (setting [18]), ≥ 20000 nM. Further, the Kd with HLA-A*31:01 (setting [18]) was 275 nM; in the assay with HLA-A*69:01 (setting [18]), ≥ 20000 nM; with HLA-A*02:01 [12], ≥ 20000 nM; with HLA-B*46:01 (setting [18]) it was ≥ 20000 nM; in the assay with HLA-A*68:02 (setting [18]), ≥ 20000 nM; with HLA-B*07:02 (setting [18]), ≥ 20000 nM. Moreover, the Kd with HLA-A*26:03 (setting [19]), with HLA-B*08:03 (setting [19]), with HLA-B*18:01 and with HLA-B*27:05 (setting [18]) was ≥ 20000 nM throughout.
With LGKAYAQMW, the Kd with HLA-B*57:01 [7] (setting [17]) is 207 nM.
Turning to PSVVETLEQM, the Kd with HLA-B*58:01 [8] (setting [16]) amounted to 321 nM.
As to LYDAVAALF, the Kd was 73 nM with HLA-C*05:01 and ≤ 0.1 nM with HLA-A*24:03.
As to TTRLENIMW, in the assay with HLA-B*57:01 [7] (setting [15]), the Kd amounted to 13.3 nM.

One may read the Kd as the constant that tells how readily two partners part at equilibrium.

The values are drawn from the Immune Epitope Database (IEDB).
